Source: patent publication US9333272B2, “Fibrin binding peptide conjugates for diagnostic and therapeutic applications” (Bracco Imaging SpA, priority 2006, dated 2016)
Ends that are not written are not given here.

Biological target: T1, fibrin in human clots (Homo sapiens, UniProt P02671+P02675+P02679)
T1 construct: tissue Dade Behring Control Plasma N; host or cells: clots formed in vitro from pooled human plasma with Pathromtin SL and CaCl2
T1 sequence (P02671 36-629 limits assumed): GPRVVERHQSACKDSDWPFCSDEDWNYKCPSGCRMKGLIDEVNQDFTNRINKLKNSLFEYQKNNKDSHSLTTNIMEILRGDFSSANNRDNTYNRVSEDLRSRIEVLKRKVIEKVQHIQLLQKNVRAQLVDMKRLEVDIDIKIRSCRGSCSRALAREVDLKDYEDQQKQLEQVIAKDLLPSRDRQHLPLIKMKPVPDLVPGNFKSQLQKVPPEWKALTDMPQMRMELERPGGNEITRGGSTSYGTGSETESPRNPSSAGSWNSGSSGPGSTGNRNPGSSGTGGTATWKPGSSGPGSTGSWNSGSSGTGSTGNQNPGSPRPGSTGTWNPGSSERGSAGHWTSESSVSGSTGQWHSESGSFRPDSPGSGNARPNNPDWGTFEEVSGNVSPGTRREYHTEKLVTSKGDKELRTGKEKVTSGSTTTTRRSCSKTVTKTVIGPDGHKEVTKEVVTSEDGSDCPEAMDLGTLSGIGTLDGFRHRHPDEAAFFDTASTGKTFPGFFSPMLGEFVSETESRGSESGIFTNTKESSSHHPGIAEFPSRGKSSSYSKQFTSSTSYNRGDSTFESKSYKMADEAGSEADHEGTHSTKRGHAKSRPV
T1 sequence (P02675 45-491 limits assumed): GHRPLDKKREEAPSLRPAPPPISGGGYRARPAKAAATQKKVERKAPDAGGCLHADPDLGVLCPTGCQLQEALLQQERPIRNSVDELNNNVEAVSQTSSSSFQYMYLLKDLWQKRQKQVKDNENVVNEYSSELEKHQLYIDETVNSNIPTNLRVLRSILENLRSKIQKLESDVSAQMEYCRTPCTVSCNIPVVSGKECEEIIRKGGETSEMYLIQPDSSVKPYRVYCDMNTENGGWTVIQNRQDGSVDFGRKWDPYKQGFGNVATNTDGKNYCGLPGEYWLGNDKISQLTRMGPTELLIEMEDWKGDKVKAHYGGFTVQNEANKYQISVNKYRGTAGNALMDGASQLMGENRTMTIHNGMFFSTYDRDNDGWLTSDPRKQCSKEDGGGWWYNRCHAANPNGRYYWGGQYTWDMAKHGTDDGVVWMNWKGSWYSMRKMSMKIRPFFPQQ
T1 sequence (P02679 27-437 isoform P02679-2 limits assumed): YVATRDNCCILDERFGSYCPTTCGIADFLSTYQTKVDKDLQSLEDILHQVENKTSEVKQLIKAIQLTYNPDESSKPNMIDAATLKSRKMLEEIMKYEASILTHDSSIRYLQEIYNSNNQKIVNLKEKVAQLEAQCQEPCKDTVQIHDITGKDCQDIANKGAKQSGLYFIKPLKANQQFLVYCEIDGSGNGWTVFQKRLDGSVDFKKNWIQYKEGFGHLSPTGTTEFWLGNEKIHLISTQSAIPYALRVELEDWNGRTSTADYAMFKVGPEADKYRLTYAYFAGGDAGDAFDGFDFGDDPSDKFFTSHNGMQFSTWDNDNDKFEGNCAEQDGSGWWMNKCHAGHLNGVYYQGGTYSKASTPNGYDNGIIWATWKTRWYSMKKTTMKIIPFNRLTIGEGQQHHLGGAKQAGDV
Assay: In vitro MRI of human clots at different incubation concentrations (Example 15)
Protocol: By following the above procedure, a second wider group of chelate compounds of the invention including, for instance, Chelate Complexes from 1 to 7 and the Reference Compounds from 1 to 6 were tested on human clots at different incubation concentration (25 to 400 μM of complex). Signal enhancement (%) was then determined for each clots by MR Imaging at 2T and corresponding Gd content in clots was measured by ICP.
By comparing the signal enhancement in clots, for instance at incubation concentration of 100 μM of peptide, tested compounds could be classified in term of performance as follows (Max signal enhancement was normalized to the chelate complex 4): […]
High resolution MRI was then performed at 2 Tesla by using T1-weighted Spin-Echo (SE) sequences. T1 maps were also calculated from the acquisitions of 2D gradient echo images or inversion recovery spin echo images.
The maximum signal intensity was measured within a region of interest (ROI) including a clot, drawn by an operator on each MR image using a dedicated software (MR Research Systems Ltd, Surrey UK). Max signal intensity enhancement (Enh %) was determined as: Enh %=100*(SIx−SI0)/SI0 where SI0 and SIx are the signal intensity of clots incubated without and with test compounds, respectively.

“Chelate Complex 1: Gd chelate (four DTPA-Glu) conjugated via linker to fibrin-binding peptide SEQ ID NO:001 (WQPCPAESWTFCWDPGGGK; cysteine pairing not given here; also: Gd chelate (four DTPA-Glu) conjugated via linker, site not given here, metal complex: Gd)” was tested, and the “Max signal Enhancement (%) at 100 μM” value (human clots, incubation 100 μM of peptide, MRI at 2T, normalized to chelate complex 4) was 93.2% and the “Signal enhancement in clots, comparison in words” value (incubation concentration 100 μM) was “best results”.
